Reference: PMC6261512 (Protein expression and purification, 2018)

Target: the molecule itself
Test: SEC

B1: MBP-5-HT3A-ICD chimera (maltose-binding protein and the intracellular domain of the mouse serotonin type 3A receptor) (domain or fragment, UniProt P23979 327-466, looked up)
chain: ETIFIVRLVHKQDLQRPVPDWLRHLVLDRIAWILCLGEQPMAHRPPATFQANKTDDCSGSDLLPAMGNHCSHVGGPQDLEKTPRGRGSPLPPPREASLAVRGLLQELSSIRHFLEKRDEMREVARDWLRVGYVLDRLLFR
In the case of B1, the “stoichiometry N” value is reported as 5.
